Among the data in patent CN101538329A are ELISA A值 fold over negative control and ELISA A值 fold of induced over uninduced strain values, retold here.

Some results are limits rather than exact numbers.

Assay [1] has as its target β-淀粉样多肽 Aβ1-42 (beta-amyloid peptide, purified) (human) (UniProt P05067). The experiment in a line: phage ELISA on coated Aβ, OD490, against negative control (2% MPBS). (ELISA stands for enzyme-linked immunosorbent assay.)
For assay [2] the target is unchanged. Kind of assay: repeated phage ELISA on coated Aβ, OD490, against negative control.
Assay [3] shares this target. The experiment in a line: ELISA of soluble scFv fractions on coated Aβ, anti-c-myc detection; induced against uninduced strain.
Assay [4] has the same target. Kind of assay: ELISA on coated Aβ, culture supernatant fraction; induced against uninduced strain.
For assay [5] the target is unchanged. Kind of assay: ELISA on coated Aβ, whole-cell protein fraction; induced against uninduced strain.

Chain of UniProt P05067 (P05067 672-713 limits assumed): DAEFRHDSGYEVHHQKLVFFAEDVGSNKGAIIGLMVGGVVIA

B1: A10 单克隆噬菌体抗体 (phage-displayed human anti-Aβ scFv, clone A10) (scFv, part only; not given: linker, tag and phage fusion, not shown: small tags and cut ends; large carriers)
scFv (part 1 of 2), part: EVQLVQSGAEVKRPGSSVNVSCKASGGTLSNYGLSWVRQAPGQGLEWMGGIIPSFGPANYAQIFQGRVTITADESTNTAYMELRSLTSDDTAVYYCAREGGVGVATTYWLDPWGQGTTVTVSS
scFv (part 2 of 2), part: HFMLTQPHSVSESPGKTVTISCTRSSGSIASTYVHWYQQRPGTSPTTVIYEDNRRHSRVPDRFSGSIDSSSNSASLTISGLKTEDEGDYYCQSYDSTNAWVFGGGTKVTVLG
For B1, the results for the ELISA A值 fold over negative control in assay [1] and in assay [2] were 2 fold and above 5 fold, respectively.

B2: F2 可溶性抗Aβ scFv (soluble scFv of clone F2 expressed in E. coli HB2151) (scFv, V domains shown, not shown: small tags and cut ends)
VH: B1 scFv (part 1 of 2), part
VL: B1 scFv (part 2 of 2), part
Take B2: the ELISA A值 fold of induced over uninduced strain in assay [3] is above 2 fold; in assay [4], above 5 fold; in assay [5], above 5 fold.

B3: F2 单克隆噬菌体抗体 (phage-displayed human anti-Aβ scFv, clone F2) (scFv, part only; not given: linker, tag and phage fusion, not shown: small tags and cut ends; large carriers)
scFv (part 1 of 2), part: B1 scFv (part 1 of 2), part
scFv (part 2 of 2), part: B1 scFv (part 2 of 2), part
On to B3, for which the ELISA A值 fold over negative control was above 2 fold in assay [1] and above 5 fold in assay [2].

B4: A10 可溶性抗Aβ scFv (soluble scFv of clone A10 expressed in E. coli HB2151) (scFv, V domains shown, not shown: small tags and cut ends)
VH: B1 scFv (part 1 of 2), part
VL: B1 scFv (part 2 of 2), part
On to B4, for which the ELISA A值 fold of induced over uninduced strain was above 2 fold in assay [3], above 5 fold in assay [4] and above 5 fold in assay [5].
